From article PMC3958483, “Fine Specificity and Molecular Competition in SLAM Family Receptor Signalling” (PLoS ONE, 2014)

B1: EAT-2: small SH2 domain containing adapter protein (protein)
chain: MDLPYYHGRLTKQDCETLLLKEGVDGNFLLRDSESIPGVLCLCVSFKNIVYTYRIFREKHGYYRIQTAEGSPKQVFPSLKELISKFEKPNQGMVVHLLKPIKRTSPSLRWRGLKLELETFVNSNSDYVDVLP
modifications: left off: His tag, end not stated, state not stated
notes: small SH2 domain containing adapter protein
B2: SAP: small SH2 domain containing adapter protein (protein, UniProt O60880 1-128, looked up)
SH2 domain-containing protein …: MDAVAVYHGKISRETGEKLLLATGLDGSYLLRDSESVPGVYCLCVLYHGYIYTYRVSQTETGSWSAETAPGVHKRYFRKIKNLISAFQKPDQGIVIPLQYPVEKKSSARSTQGTTGIREDPDVCLKAP
B3: SHIP-2: SH2 domain containing phosphatase (protein)
chain: MASACGAPGPGGALGSQAPSWYHRDLSRAAAEELLARAGRDGSFLVRDSESVAGAFALCVLYQKHVHTYRILPDGEDFLAVQTSQGVPVRRFQTLGELIGLYAQPNQGLVCALLLPVEGEREPDPPDDRDASDGEDEKPPLPPRSGSTSISAPTGPSSPLPAPETPTAPAAESAPNGLSTVSHDYLKGSYGLDLEAVRGGASHLPHLTRTLATSCRRLHSEVDKVLSGLEILSKVFDQQSSPMVTRLLQQQNLPQTGEQELESLVLKLSVLKDFLSGIQKKALKALQDMSSTAPPAPQPSTRKAKTIPVQAFEVKLDVTLGDLTKIGKSQKFTLSVDVEGGRLVLLRRQRDSQEDWTTFTHDRIRQLIKSQRVQNKLGVVFEKEKDRTQRKDFIFVSARKREAFCQLLQLMKNKHSKQDEPDMISVFIGTWNMGSVPPPKNVTSWFTSKGLGKTLDEVTVTIPHDIYVFGTQENSVGDREWLDLLRGGLKELTDLDYRPIAMQSLWNIKVAVLVKPEHENRISHVSTSSVKTGIANTLGNKGAVGVSFMFNGTSFGFVNCHLTSGNEKTARRNQNYLDILRLLSLGDRQLNAFDISLRFTHLFWFGDLNYRLDMDIQEILNYISRKEFEPLLRVDQLNLEREKHKVFLRFSEEEISFPPTYRYERGSRDTYAWHKQKPTGVRTNVPSWCDRILWKSYPETHIICNSYGCTDDIVTSDHSPVFGTFEVGVTSQFISKKGLSKTSDQAYIEFESIEAIVKTASRTKFFIEFYSTCLEEYKKSFENDAQSSDNINFLKVQWSSRQLPTLKPILADIEYLQDQHLLLTVKSMDGYESYGECVVALKSMIGSTAQQFLTFLSHRGEETGNIRGSMKVRVPTERLGTRERLYEWISIDKDEAGAKSKAPSVSRGSQEPRSGSRKPAFTEASCPLSRLFEEPEKPPPTGRPPAPPRAAPREEPLTPRLKPEGAPEPEGVAAPPPKNSFNNPAYYVLEGVPHQLLPPEPPSPARAPVPSATKNKVAITVPAPQLGHHRHPRVGEGSSSDEESGGTLPPPDFPPPPLPDSAIFLPPSLDPLPGPVVRGRGGAEARGPPPPKAHPRPPLPPGPSPASTFLGEVASGDDRSCSVLQMAKTLSEVDYAPAGPARSALLPGPLELQPPRGLPSDYGRPLSFPPPRIRESIQEDLAEEAPCLQGGRASGLGEAGMSAWLRAIGLERYEEGLVHNGWDDLEFLSDITEEDLEEAGVQDPAHKRLLLDTLQLSK
B4: SHIP-1: SH2 domain containing phosphatase (protein)
chain: MVPCWNHGNITRSKAEELLSRTGKDGSFLVRASESISRAYALCVLYRNCVYTYRILPNEDDKFTVQASEGVSMRFFTKLDQLIEFYKKENMGLVTHLQYPVPLEEEDTGDDPEEDTVESVVSPPELPPRNIPLTASSCEAKEVPFSNENPRATETSRPSLSETLFQRLQSMDTSGLPEEHLKAIQDYLSTQLAQDSEFVKTGSSSLPHLKKLTTLLCKELYGEVIRTLPSLESLQRLFDQQLSPGLRPRPQVPGEANPINMVSKLSQLTSLLSSIEDKVKALLHEGPESPHRPSLIPPVTFEVKAESLGIPQKMQLKVDVESGKLIIKKSKDGSEDKFYSHKKILQLIKSQKFLNKLVILVETEKEKILRKEYVFADSKKREGFCQLLQQMKNKHSEQPEPDMITIFIGTWNMGNAPPPKKITSWFLSKGQGKTRDDSADYIPHDIYVIGTQEDPLSEKEWLEILKHSLQEITSVTFKTVAIHTLWNIRIVVLAKPEHENRISHICTDNVKTGIANTLGNKGAVGVSFMFNGTSLGFVNSHLTSGSEKKLRRNQNYMNILRFLALGDKKLSPFNITHRFTHLFWFGDLNYRVDLPTWEAETIIQKIKQQQYADLLSHDQLLTERREQKVFLHFEEEEITFAPTYRFERLTRDKYAYTKQKATGMKYNLPSWCDRVLWKSYPLVHVVCQSYGSTSDIMTSDHSPVFATFEAGVTSQFVSKNGPGTVDSQGQIEFLRCYATLKTKSQTKFYLEFHSSCLESFVKSQEGENEEGSEGELVVKFGETLPKLKPIISDPEYLLDQHILISIKSSDSDESYGEGCIALRLEATETQLPIYTPLTHHGELTGHFQGEIKLQTSQGKTREKLYDFVKTERDESSGPKTLKSLTSHDPMKQWEVTSRAPPCSGSSITEIINPNYMGVGPFGPPMPLHVKQTLSPDQQPTAWSYDQPPKDSPLGPCRGESPPTPPGQPPISPKKFLPSTANRGLPPRTQESRPSDLGKNAGDTLPQEDLPLTKPEMFENPLYGSLSSFPKPAPRKDQESPKMPRKEPPPCPEPGILSPSIVLTKAQEADRGEGPGKQVPAPRLRSFTCSSSAEGRAAGGDKSQGKPKTPVSSQAPVPAKRPIKPSRSEINQQTPPTPTPRPPLPVKSPAVLHLQHSKGRDYRDNTELPHHGKHRPEEGPPGPLGRTAMQ
B5: c-Src Tyrosine Kinase (CSK): SH2 domain containing protein pulled down by CD244 ITSM1 (protein)
chain: MSAIQAAWPSGTECIAKYNFHGTAEQDLPFCKGDVLTIVAVTKDPNWYKAKNKVGREGIIPANYVQKREGVKAGTKLSLMPWFHGKITREQAERLLYPPETGLFLVRESTNYPGDYTLCVSCDGKVEHYRIMYHASKLSIDEEVYFENLMQLVEHYTSDADGLCTRLIKPKVMEGTVAAQDEFYRSGWALNMKELKLLQTIGKGEFGDVMLGDYRGNKVAVKCIKNDATAQAFLAEASVMTQLRHSNLVQLLGVIVEEKGGLYIVTEYMAKGSLVDYLRSRGRSVLGGDCLLKFSLDVCEAMEYLEGNNFVHRDLAARNVLVSEDNVAKVSDFGLTKEASSTQDTGKLPVKWTAPEALREKKFSTKSDVWSFGILLWEIYSFGRVPYPRIPLKDVVPRVEKGYKMDAPDGCPPAVYEVMKNCWHLDAAMRPSFLQLREQLEHIKTHELHL

Target: T1, EAT-2 (Homo sapiens, UniProt O14796)
T1 sequence (O14796 1-132): B1 chain
Test: EAT-2 expression in NK92 after RNA interference
Format: cell-based
Details: shRNA, NK92 cells; from 0.44 μM
Description: Lentiviral constructs expressing gene-specific shRNAs in vector pLKO.1 were obtained from Open Biosystems. […] As a non-targeting control, the hairpin sequence 5′-[…] was expressed in pLKO.1. Lentiviral particles were produced through polyethylenimine (PEI-Sigma) co-transfection of 293 T cells with pLKO.1 along with packaging vectors pMD2.G and pSPAX2 (Addgene; Didier Trono Laboratory). Virus was produced in RPMI 1640/10% heat-inactivated FCS for 48–72 hours. Viral supernatants were collected and NK92 cells were transduced twice overnight in the presence of 1000 U/ml IL-2. Cells with stable shRNA expression were selected using 3 μg/ml puromycin (Invitrogen) for 72 hours prior to use in functional assays.
For quantitation of protein expression, NK92 cell lysates were prepared using buffer (150 mM NaCl, 20 mM Tris-HCl pH 7.4, 10% glycerol, 2 mM EDTA, 10 mM NaF, 1 mM PMSF) containing 0.5% Triton X-100. Lysates were resolved by SDS-PAGE under reducing conditions using Novex gradient gels and transferred to nitrocellulose membranes for western blotting by standard protocols. […] SHP-2 levels in 10^5 cell equivalents were analysed in a similar manner with recombinant SHP-2 N+C as a standard (25, 50 and 100 ng) and anti-SHP-2 (Cell Signaling #3752). […] Quantitation of protein expression was performed using LI-COR Odyssey Sa software version 1.0. […]

Row | Molecule | intracellular EAT-2 concentration after 50% knockdown
1 | B1 | approximately 0.2 μM

Tested on: not listed separately
Test: Pull-down with phosphorylated CD244 ITSM1 from NK cell lysates, LC-MS/MS
Format: binding
Details: human NK cell lysates; compared with control phosphopeptide SHIP-1 Y865
Description: For pull-down of associated proteins, streptavidin Sepharose (GE Healthcare) was pre-coated with saturating amounts of peptide or EAT-2. NK92 cells (4×10^8) were treated with 500 μM pervanadate for 15 minutes, then lysed in PBS, 1% Triton X-100, 1 mM sodium orthovanadate in the presence of mammalian protease inhibitor solution (Sigma). Lysates were pre-cleared by centrifugation, followed by incubation with streptavidin Sepharose. Peptide or EAT-2-coated streptavidin beads were incubated with NK92 lysates for 2 hours at 4°C with rotation. Beads were washed once with 15 ml ice cold PBS/1% (v/v) Triton X-100. Bound protein was eluted using 100 mM glycine-HCl pH 2.5.
Protein samples were prepared for mass spectrometry as described previously. Briefly, eluted proteins were spun onto the membranes of Vivacon 500 filters (10,000 MWCO – Sartorius). Membranes were washed once with PBS then proteins were denatured with 8 M urea, reduced with 10 mM DTT in 25 mM ammonium bicarbonate buffer, followed by alkylation with 50 mM iodoacetamide. Proteins were then digested overnight with trypsin. Tryptic peptides were then eluted from the membrane and analyzed on an Ultimate 3000 HPLC-coupled Orbitrap XL mass spectrometer. Proteins were identified by liquid chromatography-coupled tandem mass-spectrometry (LC-MS/MS). Raw data files were converted to mzXML format using ReADW (v. 4.2.1) and submitted to the Central Proteomics Facilities Pipeline for database comparison and peptide identification. Searching against the International Protein Index (IPI) human protein sequence database for protein identification, protein and peptide hits were statistically validated by applying a 1% false discovery rate (FDR) by searching against a concatenated target/decoy database. Datasets were searched with variable peptide modifications for phosphotyrosine, phosphoserine, phosphothreonine, oxidation of methionine and deamination.
Protein identification data were exported into ProteinCenter (v3.8.3013 – Thermo Fisher) for filtering and annotation. Results were filtered to remove any proteins with less than 3 unique peptides, less than 10 percent sequence coverage, or median protein probability scores less than 0.5. To establish sample specificity, any protein with at least 10-fold greater sequence coverage in one sample compared with the other was considered to be specific for that sample.
Similarly, differences in specificity of inhibitory SH2 domain containing proteins for ITSMs are relevant to understanding mechanisms of inhibition by ITSMs. We focused on CD244 ITSMs to establish general paradigms.

Row | Molecule | pull-down by CD244 ITSM1
2 | B2 | identifying SAP and EAT-2
3 | B3 | pulled down by the ITSM peptide
4 | B1 | identifying SAP and EAT-2
5 | B4 | pulled down by the ITSM peptide
6 | B5 | pulled down by the ITSM peptide
